Positions of bridges follow the written chain, without caps; N, C: chain ends. Non-standard residues stand in square brackets, D forms with d. Bip = N[C@@H](Cc1ccc(-c2ccccc2)cc1)C(=O)O; αMeW = C[C@](N)(Cc1c[nH]c2ccccc12)C(=O)O; R8 = C=CCCCCCC[C@@](C)(N)C(=O)O; S5 = C=CCCC[C@](C)(N)C(=O)O; Ac6c = NC1(C(=O)O)CCCCC1; Ac5c = NC1(C(=O)O)CCCC1; Aib = CC(C)(N)C(=O)O
Experiments:
Assay in all cases: Ki table, method not stated
MCL-1 = molecular target: T1, MCL-1 (UniProt Q07820 172-327, limits assumed)
T1 construct: also called Myeloid cell leukemia 1

BCL-XL = BCL-XL (UniProt Q07817 1-209)
BCL-2 = BCL-2 (UniProt P10415 1-217, limits assumed)
Sequence of BCL-2 (P10415 1-217 limits assumed): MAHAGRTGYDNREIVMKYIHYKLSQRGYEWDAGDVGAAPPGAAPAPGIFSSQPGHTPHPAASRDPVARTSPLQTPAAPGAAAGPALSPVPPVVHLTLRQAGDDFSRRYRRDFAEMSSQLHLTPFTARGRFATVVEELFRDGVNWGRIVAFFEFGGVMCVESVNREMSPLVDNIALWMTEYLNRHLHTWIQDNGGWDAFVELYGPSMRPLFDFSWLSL

Sequence of BCL-XL (Q07817 1-209): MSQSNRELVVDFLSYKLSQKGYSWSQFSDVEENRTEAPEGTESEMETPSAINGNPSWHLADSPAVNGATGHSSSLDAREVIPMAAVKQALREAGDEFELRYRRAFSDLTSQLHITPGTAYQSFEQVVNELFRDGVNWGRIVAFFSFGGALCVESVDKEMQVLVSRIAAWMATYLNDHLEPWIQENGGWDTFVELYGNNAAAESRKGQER
T1 sequence (Q07820 172-327 limits assumed): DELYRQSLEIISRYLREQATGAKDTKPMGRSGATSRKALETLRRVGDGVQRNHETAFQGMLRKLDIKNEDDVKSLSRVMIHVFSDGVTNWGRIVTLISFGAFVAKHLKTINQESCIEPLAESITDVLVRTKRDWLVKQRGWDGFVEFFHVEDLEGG

B1: SEQ ID NO: 1704 (peptide)
peptide: Ac-I[Aib]IAQALR[R8]IGDAFN[S5]YYA-NH2
modifications: staple 9-16
SMILES: CC[C@H](C)[C@H](NC(C)=O)C(=O)NC(C)(C)C(=O)N[C@H](C(=O)N[C@@H](C)C(=O)N[C@@H](CCC(N)=O)C(=O)N[C@@H](C)C(=O)N[C@@H](CC(C)C)C(=O)N[C@@H](CCCNC(=N)N)C(=O)N[C@]1(C)CCCCCCC=CCCC[C@@](C)(C(=O)N[C@@H](Cc2ccc(O)cc2)C(=O)N[C@@H](Cc2ccc(O)cc2)C(=O)N[C@@H](C)C(N)=O)NC(=O)[C@H](CC(N)=O)NC(=O)[C@H](Cc2ccccc2)NC(=O)[C@H](C)NC(=O)[C@H](CC(=O)O)NC(=O)CNC(=O)[C@H]([C@@H](C)CC)NC1=O)[C@@H](C)CC
notes: also called Ac-IAibIAQALR$r8IGDAFN$YYA-NH2
MCL-1
  Ki: 42.5 nM
BCL-XL
  Ki: 83.5 nM
BCL-2
  Ki: 97.9 nM

B2: SEQ ID NO: 1703 (peptide)
peptide: Ac-I[αMeW]IAQALR[R8]IGDAFN[S5]YYA-NH2
modifications: staple 9-16
SMILES: CC[C@H](C)[C@H](NC(C)=O)C(=O)N[C@@](C)(Cc1c[nH]c2ccccc12)C(=O)N[C@H](C(=O)N[C@@H](C)C(=O)N[C@@H](CCC(N)=O)C(=O)N[C@@H](C)C(=O)N[C@@H](CC(C)C)C(=O)N[C@@H](CCCNC(=N)N)C(=O)N[C@]1(C)CCCCCCC=CCCC[C@@](C)(C(=O)N[C@@H](Cc2ccc(O)cc2)C(=O)N[C@@H](Cc2ccc(O)cc2)C(=O)N[C@@H](C)C(N)=O)NC(=O)[C@H](CC(N)=O)NC(=O)[C@H](Cc2ccccc2)NC(=O)[C@H](C)NC(=O)[C@H](CC(=O)O)NC(=O)CNC(=O)[C@H]([C@@H](C)CC)NC1=O)[C@@H](C)CC
notes: also called Ac-IAmWIAQALR$r8IGDAFN$YYA-NH2
MCL-1
  Ki: 9.9 nM
BCL-XL
  Ki: 17.4 nM
BCL-2
  Ki: 70.6 nM

B3: SEQ ID NO: 1697 (peptide)
peptide: Ac-IWIAQA[Bip]R[R8]IGDAFN[S5]YYA-NH2
modifications: staple 9-16
SMILES: CC[C@H](C)[C@H](NC(C)=O)C(=O)N[C@@H](Cc1c[nH]c2ccccc12)C(=O)N[C@H](C(=O)N[C@@H](C)C(=O)N[C@@H](CCC(N)=O)C(=O)N[C@@H](C)C(=O)N[C@@H](Cc1ccc(-c2ccccc2)cc1)C(=O)N[C@@H](CCCNC(=N)N)C(=O)N[C@]1(C)CCCCCCC=CCCC[C@@](C)(C(=O)N[C@@H](Cc2ccc(O)cc2)C(=O)N[C@@H](Cc2ccc(O)cc2)C(=O)N[C@@H](C)C(N)=O)NC(=O)[C@H](CC(N)=O)NC(=O)[C@H](Cc2ccccc2)NC(=O)[C@H](C)NC(=O)[C@H](CC(=O)O)NC(=O)CNC(=O)[C@H]([C@@H](C)CC)NC1=O)[C@@H](C)CC
notes: also called Ac-IWIAQABipR$r8IGDAFN$YYA-NH2
MCL-1
  Ki: 83.7 nM
BCL-XL
  Ki: 8 nM
BCL-2
  Ki: 280 nM

B4: SEQ ID NO: 1720 (peptide)
peptide: Ac-SWIAAALR[R8]IGDAFN[S5]YYA-NH2
modifications: staple 9-16
SMILES: CC[C@H](C)[C@H](NC(=O)[C@H](Cc1c[nH]c2ccccc12)NC(=O)[C@H](CO)NC(C)=O)C(=O)N[C@@H](C)C(=O)N[C@@H](C)C(=O)N[C@@H](C)C(=O)N[C@@H](CC(C)C)C(=O)N[C@@H](CCCNC(=N)N)C(=O)N[C@]1(C)CCCCCCC=CCCC[C@@](C)(C(=O)N[C@@H](Cc2ccc(O)cc2)C(=O)N[C@@H](Cc2ccc(O)cc2)C(=O)N[C@@H](C)C(N)=O)NC(=O)[C@H](CC(N)=O)NC(=O)[C@H](Cc2ccccc2)NC(=O)[C@H](C)NC(=O)[C@H](CC(=O)O)NC(=O)CNC(=O)[C@H]([C@@H](C)CC)NC1=O
MCL-1
  Ki: 3.9 nM
BCL-XL
  Ki: 33.4 nM
BCL-2
  Ki: 53.2 nM

B5: SEQ ID NO: 1721 (peptide)
peptide: Ac-QWIAAALR[R8]IGDAFN[S5]YYA-NH2
modifications: staple 9-16
SMILES: CC[C@H](C)[C@H](NC(=O)[C@H](Cc1c[nH]c2ccccc12)NC(=O)[C@H](CCC(N)=O)NC(C)=O)C(=O)N[C@@H](C)C(=O)N[C@@H](C)C(=O)N[C@@H](C)C(=O)N[C@@H](CC(C)C)C(=O)N[C@@H](CCCNC(=N)N)C(=O)N[C@]1(C)CCCCCCC=CCCC[C@@](C)(C(=O)N[C@@H](Cc2ccc(O)cc2)C(=O)N[C@@H](Cc2ccc(O)cc2)C(=O)N[C@@H](C)C(N)=O)NC(=O)[C@H](CC(N)=O)NC(=O)[C@H](Cc2ccccc2)NC(=O)[C@H](C)NC(=O)[C@H](CC(=O)O)NC(=O)CNC(=O)[C@H]([C@@H](C)CC)NC1=O
MCL-1
  Ki: 4.8 nM
BCL-XL
  Ki: 35.9 nM
BCL-2
  Ki: 64.9 nM

B6: SEQ ID NO: 1725 (peptide)
peptide: Ac-IDIAAALR[R8]IGDAFN[S5]YYA-NH2
modifications: staple 9-16
SMILES: CC[C@H](C)[C@H](NC(C)=O)C(=O)N[C@@H](CC(=O)O)C(=O)N[C@H](C(=O)N[C@@H](C)C(=O)N[C@@H](C)C(=O)N[C@@H](C)C(=O)N[C@@H](CC(C)C)C(=O)N[C@@H](CCCNC(=N)N)C(=O)N[C@]1(C)CCCCCCC=CCCC[C@@](C)(C(=O)N[C@@H](Cc2ccc(O)cc2)C(=O)N[C@@H](Cc2ccc(O)cc2)C(=O)N[C@@H](C)C(N)=O)NC(=O)[C@H](CC(N)=O)NC(=O)[C@H](Cc2ccccc2)NC(=O)[C@H](C)NC(=O)[C@H](CC(=O)O)NC(=O)CNC(=O)[C@H]([C@@H](C)CC)NC1=O)[C@@H](C)CC
MCL-1
  Ki: 3 nM
BCL-XL
  Ki: 36.3 nM
BCL-2
  Ki: 41.1 nM

B7: SEQ ID NO: 1724 (peptide)
peptide: Ac-FWIAAALR[R8]IGDAFN[S5]YYA-NH2
modifications: staple 9-16
SMILES: CC[C@H](C)[C@H](NC(=O)[C@H](Cc1c[nH]c2ccccc12)NC(=O)[C@H](Cc1ccccc1)NC(C)=O)C(=O)N[C@@H](C)C(=O)N[C@@H](C)C(=O)N[C@@H](C)C(=O)N[C@@H](CC(C)C)C(=O)N[C@@H](CCCNC(=N)N)C(=O)N[C@]1(C)CCCCCCC=CCCC[C@@](C)(C(=O)N[C@@H](Cc2ccc(O)cc2)C(=O)N[C@@H](Cc2ccc(O)cc2)C(=O)N[C@@H](C)C(N)=O)NC(=O)[C@H](CC(N)=O)NC(=O)[C@H](Cc2ccccc2)NC(=O)[C@H](C)NC(=O)[C@H](CC(=O)O)NC(=O)CNC(=O)[C@H]([C@@H](C)CC)NC1=O
MCL-1
  Ki: 6.2 nM
BCL-XL
  Ki: 33.9 nM
BCL-2
  Ki: 76.7 nM

B8: SEQ ID NO: 1726 (peptide)
peptide: Ac-IRIAAALR[R8]IGDAFN[S5]YYA-NH2
modifications: staple 9-16
SMILES: CC[C@H](C)[C@H](NC(C)=O)C(=O)N[C@@H](CCCNC(=N)N)C(=O)N[C@H](C(=O)N[C@@H](C)C(=O)N[C@@H](C)C(=O)N[C@@H](C)C(=O)N[C@@H](CC(C)C)C(=O)N[C@@H](CCCNC(=N)N)C(=O)N[C@]1(C)CCCCCCC=CCCC[C@@](C)(C(=O)N[C@@H](Cc2ccc(O)cc2)C(=O)N[C@@H](Cc2ccc(O)cc2)C(=O)N[C@@H](C)C(N)=O)NC(=O)[C@H](CC(N)=O)NC(=O)[C@H](Cc2ccccc2)NC(=O)[C@H](C)NC(=O)[C@H](CC(=O)O)NC(=O)CNC(=O)[C@H]([C@@H](C)CC)NC1=O)[C@@H](C)CC
MCL-1
  Ki: 9.8 nM
BCL-XL
  Ki: 20.5 nM
BCL-2
  Ki: 39.1 nM

B9: SEQ ID NO: 1722 (peptide)
peptide: Ac-AWIAAALR[R8]IGDAFN[S5]YYA-NH2
modifications: staple 9-16
SMILES: CC[C@H](C)[C@H](NC(=O)[C@H](Cc1c[nH]c2ccccc12)NC(=O)[C@H](C)NC(C)=O)C(=O)N[C@@H](C)C(=O)N[C@@H](C)C(=O)N[C@@H](C)C(=O)N[C@@H](CC(C)C)C(=O)N[C@@H](CCCNC(=N)N)C(=O)N[C@]1(C)CCCCCCC=CCCC[C@@](C)(C(=O)N[C@@H](Cc2ccc(O)cc2)C(=O)N[C@@H](Cc2ccc(O)cc2)C(=O)N[C@@H](C)C(N)=O)NC(=O)[C@H](CC(N)=O)NC(=O)[C@H](Cc2ccccc2)NC(=O)[C@H](C)NC(=O)[C@H](CC(=O)O)NC(=O)CNC(=O)[C@H]([C@@H](C)CC)NC1=O
MCL-1
  Ki: 3.8 nM
BCL-XL
  Ki: 32.6 nM
BCL-2
  Ki: 63.9 nM

B10: SEQ ID NO: 1714 (peptide)
peptide: Ac-IW[Ac6c]AQALR[R8]IGDAFN[S5]YYA-NH2
modifications: staple 9-16
SMILES: CC[C@H](C)[C@H](NC(C)=O)C(=O)N[C@@H](Cc1c[nH]c2ccccc12)C(=O)NC1(C(=O)N[C@@H](C)C(=O)N[C@@H](CCC(N)=O)C(=O)N[C@@H](C)C(=O)N[C@@H](CC(C)C)C(=O)N[C@@H](CCCNC(=N)N)C(=O)N[C@]2(C)CCCCCCC=CCCC[C@@](C)(C(=O)N[C@@H](Cc3ccc(O)cc3)C(=O)N[C@@H](Cc3ccc(O)cc3)C(=O)N[C@@H](C)C(N)=O)NC(=O)[C@H](CC(N)=O)NC(=O)[C@H](Cc3ccccc3)NC(=O)[C@H](C)NC(=O)[C@H](CC(=O)O)NC(=O)CNC(=O)[C@H]([C@@H](C)CC)NC2=O)CCCCC1
notes: also called Ac-IWAc6cAQALR$r8IGDAFN$YYA-NH2
MCL-1
  Ki: 10.4 nM
BCL-XL
  Ki: 7.7 nM
BCL-2
  Ki: 25.7 nM

B11: SEQ ID NO: 1708 (peptide)
peptide: Ac-IWIA[Aib]ALR[R8]IGDAFN[S5]YYA-NH2
modifications: staple 9-16
SMILES: CC[C@H](C)[C@H](NC(C)=O)C(=O)N[C@@H](Cc1c[nH]c2ccccc12)C(=O)N[C@H](C(=O)N[C@@H](C)C(=O)NC(C)(C)C(=O)N[C@@H](C)C(=O)N[C@@H](CC(C)C)C(=O)N[C@@H](CCCNC(=N)N)C(=O)N[C@]1(C)CCCCCCC=CCCC[C@@](C)(C(=O)N[C@@H](Cc2ccc(O)cc2)C(=O)N[C@@H](Cc2ccc(O)cc2)C(=O)N[C@@H](C)C(N)=O)NC(=O)[C@H](CC(N)=O)NC(=O)[C@H](Cc2ccccc2)NC(=O)[C@H](C)NC(=O)[C@H](CC(=O)O)NC(=O)CNC(=O)[C@H]([C@@H](C)CC)NC1=O)[C@@H](C)CC
notes: also called Ac-IWIAAibALR$r8IGDAFN$YYA-NH2
MCL-1
  Ki: 5.5 nM
BCL-XL
  Ki: 59 nM
BCL-2
  Ki: 120 nM

B12: SEQ ID NO: 1715 (peptide)
peptide: Ac-IW[Ac5c]AQALR[R8]IGDAFN[S5]YYA-NH2
modifications: staple 9-16
SMILES: CC[C@H](C)[C@H](NC(C)=O)C(=O)N[C@@H](Cc1c[nH]c2ccccc12)C(=O)NC1(C(=O)N[C@@H](C)C(=O)N[C@@H](CCC(N)=O)C(=O)N[C@@H](C)C(=O)N[C@@H](CC(C)C)C(=O)N[C@@H](CCCNC(=N)N)C(=O)N[C@]2(C)CCCCCCC=CCCC[C@@](C)(C(=O)N[C@@H](Cc3ccc(O)cc3)C(=O)N[C@@H](Cc3ccc(O)cc3)C(=O)N[C@@H](C)C(N)=O)NC(=O)[C@H](CC(N)=O)NC(=O)[C@H](Cc3ccccc3)NC(=O)[C@H](C)NC(=O)[C@H](CC(=O)O)NC(=O)CNC(=O)[C@H]([C@@H](C)CC)NC2=O)CCCC1
notes: also called Ac-IWAc5cAQALR$r8IGDAFN$YYA-NH2
MCL-1
  Ki: 8.9 nM
BCL-XL
  Ki: 8.4 nM
BCL-2
  Ki: 68.2 nM
